One block for each substance: values may come before it.
Target: sulfite reductase tagged with a C-terminal GFP S11 (SEQ ID NO: 16)
Test: cell-based or functional assay

Green Fluorescence (488/510) (clone A6): 7.74 | Green Fluorescence (488/510) (clone A8): 8.54 | Green Fluorescence (488/510) (clone B3): 13.9 | Green Fluorescence (488/510) (clone B4): 16 | Green Fluorescence (488/510) (clone B6): 8.08 | Green Fluorescence (488/510) (clone B10): 16.1 | Green Fluorescence (488/510) (clone C9): 17.5 | Green Fluorescence (488/510) (clone D1): 16.4 | Green Fluorescence (488/510) (clone D2): 18.5 | Green Fluorescence (488/510) (clone D5): 17.8 | Green Fluorescence (488/510) (clone D7): 17.4 | Green Fluorescence (488/510) (clone D9): 21 | Green Fluorescence (488/510) (clone D10): 18.2 | Green Fluorescence (488/510) (clone D11): 17.1 | Green Fluorescence (488/510) (clone E1): 12.3 | Green Fluorescence (488/510) (clone E3): 17.9 | Green Fluorescence (488/510) (clone E4): 17.4 | Green Fluorescence (488/510) (clone E6): 15.4 | Green Fluorescence (488/510) (clone E8): 22.9 | Green Fluorescence (488/510) (clone E9): 23.9 | Green Fluorescence (488/510) (clone F1): 15.8 | Green Fluorescence (488/510) (clone F6): 11.5 | Green Fluorescence (488/510) (clone F7): 17.7 | Green Fluorescence (488/510) (clone F9): 21.4 | Green Fluorescence (488/510) (clone F10): 8.11 | Green Fluorescence (488/510) (clone F11): 19 | Green Fluorescence (488/510) (clone G9): 18.6 | Green Fluorescence (488/510) (clone G10): 17 | Green Fluorescence (488/510) (clone H4): 9.39 | Green Fluorescence (488/510) (clone H5): 8.77 | Green Fluorescence (488/510) (clone H9): 12.4 | Green Fluorescence (488/510) (clone H10): 13.1 | Ratio Yellow/Green Fluorescence (clone A6): 18.9 | Ratio Yellow/Green Fluorescence (clone A8): 17.5 | Ratio Yellow/Green Fluorescence (clone B3): 10.5 | Ratio Yellow/Green Fluorescence (clone B4): 9.71 | Ratio Yellow/Green Fluorescence (clone B6): 13.7 | Ratio Yellow/Green Fluorescence (clone B10): 10.2 | Ratio Yellow/Green Fluorescence (clone C9): 9.2 | Ratio Yellow/Green Fluorescence (clone D1): 9.41 | Ratio Yellow/Green Fluorescence (clone D2): 8.3 | Ratio Yellow/Green Fluorescence (clone D5): 8.66 | Ratio Yellow/Green Fluorescence (clone D7): 8.97 | Ratio Yellow/Green Fluorescence (clone D9): 7.45 | Ratio Yellow/Green Fluorescence (clone D10): 7.74 | Ratio Yellow/Green Fluorescence (clone D11): 8.31 | Ratio Yellow/Green Fluorescence (clone E1): 11.3 | Ratio Yellow/Green Fluorescence (clone E3): 8.45 | Ratio Yellow/Green Fluorescence (clone E4): 8.79 | Ratio Yellow/Green Fluorescence (clone E6): 10.1 | Ratio Yellow/Green Fluorescence (clone E8): 7.21 | Ratio Yellow/Green Fluorescence (clone E9): 6.93 | Ratio Yellow/Green Fluorescence (clone F1): 10.1 | Ratio Yellow/Green Fluorescence (clone F6): 12.6 | Ratio Yellow/Green Fluorescence (clone F7): 9.1 | Ratio Yellow/Green Fluorescence (clone F9): 7.71 | Ratio Yellow/Green Fluorescence (clone F10): 14.3 | Ratio Yellow/Green Fluorescence (clone F11): 8.74 | Ratio Yellow/Green Fluorescence (clone G9): 9.14 | Ratio Yellow/Green Fluorescence (clone G10): 9.91 | Ratio Yellow/Green Fluorescence (clone H4): 16.6 | Ratio Yellow/Green Fluorescence (clone H5): 18.4 | Ratio Yellow/Green Fluorescence (clone H9): 13.5 | Ratio Yellow/Green Fluorescence (clone H10): 13.3 | Yellow Fluorescence (510/532) (clone A6): 146 | Yellow Fluorescence (510/532) (clone A8): 150 | Yellow Fluorescence (510/532) (clone B3): 146 | Yellow Fluorescence (510/532) (clone B4): 155 | Yellow Fluorescence (510/532) (clone B6): 111 | Yellow Fluorescence (510/532) (clone B10): 165 | Yellow Fluorescence (510/532) (clone C9): 161 | Yellow Fluorescence (510/532) (clone D1): 154 | Yellow Fluorescence (510/532) (clone D2): 154 | Yellow Fluorescence (510/532) (clone D5): 154 | Yellow Fluorescence (510/532) (clone D7): 156 | Yellow Fluorescence (510/532) (clone D9): 156 | Yellow Fluorescence (510/532) (clone D10): 141 | Yellow Fluorescence (510/532) (clone D11): 143 | Yellow Fluorescence (510/532) (clone E1): 139 | Yellow Fluorescence (510/532) (clone E3): 151 | Yellow Fluorescence (510/532) (clone E4): 153 | Yellow Fluorescence (510/532) (clone E6): 155 | Yellow Fluorescence (510/532) (clone E8): 165 | Yellow Fluorescence (510/532) (clone E9): 165 | Yellow Fluorescence (510/532) (clone F1): 159 | Yellow Fluorescence (510/532) (clone F6): 144 | Yellow Fluorescence (510/532) (clone F7): 161 | Yellow Fluorescence (510/532) (clone F9): 165 | Yellow Fluorescence (510/532) (clone F10): 116 | Yellow Fluorescence (510/532) (clone F11): 166 | Yellow Fluorescence (510/532) (clone G9): 170 | Yellow Fluorescence (510/532) (clone G10): 168 | Yellow Fluorescence (510/532) (clone H4): 156 | Yellow Fluorescence (510/532) (clone H5): 161 | Yellow Fluorescence (510/532) (clone H9): 168 | Yellow Fluorescence (510/532) (clone H10): 175
Substance: Split-YFP S1-10 (T203Y) (from UniProt P42212 1-214)

Final Fluorescence (Ident. B9): 703 | Final Fluorescence (Ident. C12): 1740 | Initial Rate (Ident. B9): 2230 | Initial Rate (Ident. C12): 5120
Substance: Split-CFP S1-10 (D19E, D21N, Y66W, S99T, H148D, T205S)

Continued, substance first:

Substance: Split-YFP S1-10 (T65A, T203Y, T205S) (from UniProt P42212 1-214)
Green Fluorescence (488/510) (clone C4): 7.17 | Ratio Yellow/Green Fluorescence (clone C4): 10.6 | Yellow Fluorescence (510/532) (clone C4): 76.2

Substance: Split-CFP S1-10 (D21N, Y66W, T205S) (from UniProt P42212 1-214)
Final Fluorescence (Ident. F12): 868 | Initial Rate (Ident. F12): 1980

Substance: Split-YFP S1-10 (T9N, T65L, T203Y, T205S) (from UniProt P42212 1-214)
Green Fluorescence (488/510) (clone C5): 5.07 | Ratio Yellow/Green Fluorescence (clone C5): 20.9 | Yellow Fluorescence (510/532) (clone C5): 106
